Target: wild type plasma kallikrein recombinant catalytic domain (Pichia pastoris) (human) (UniProt P03952)
Assay: enzyme inhibition assay: rate (F/s) of cleavage of a substrate peptide by PKal against [IgG] (nM), fitted to the Morrison equation (apparent Ki); panel 'X115-F02 vs WT'

B1: X115-F02 (antibody, human IgG1, kappa, V domains shown)
VH: EVQLLESGGGLVQPGGSLRLSCAASGFTFSHYIMMWVRQAPGKGLEWVSGIYSSGGITVYADSVKGRFTISRDNSKNTLYLQMNSLRAEDTAVYYCAYRRIGVPRRDEFDIWGQGTMVTVSS
VL: DIQMTQSPSTLSASVGDRVTITCRASQSISSWLAWYQQKPGKAPKLLIYKASTLESGVPSRFSGSGSGTEFTLTISSLQPDDFATYYCQQYNTYWTFGQGTKVEIKR
  Ki: 0.09 nM
